{"source": "patent US20250283129A1", "about": "“PROCESS” (Sun Pharmaceutical Industries Australia Pty Limited, priority 2021, published 2025)", "molecules": {"B1": {"name": "15K+M360I: codeine 3-O-demethylase with amino acid substitutions I5K and M360I (protein, listed as Papaver somniferum)", "chain": "METPKLIKLGNGLSIPSVQELAKLTLAEIPSRYTCTGESPLNNIGASVTDDETVPVIDLQNLLSPEPVVGKLELDKLHSACKEWGFFQLVNHGVDALLMDNIKSEIKGFFNLPMNEKTKYGQQDGDFEGFGQPYIESEDQRLDWTEVFSMLSLPLHLRKPHLFPELPLPFRETLESYLSKMKKLSTVVFEMLEKSLQLVEIKGMTDLFEDGLQTMRMNYYPPCPRPELVLGLTSHSDFSGLTILLQLNEVEGLQIRKEERWISIKPLPDAFIVNVGDILEIMTNGIYRSVEHRAVVNSTKERLSIATFHDSKLESEIGPISSLVTPETPALFKRGRYEDILKENLSRKLDGKSFLDYMRI"}}, "key": {"codeine": {"test_system": "codeine", "experiment": "Whole cell biotransformation of codeine to morphine by E. coli cells expressing CODM variants", "type": "cell-based"}, "thebaine": {"test_system": "thebaine", "experiment": "Whole cell biotransformation of thebaine to oripavine by E. coli cells expressing CODM variants", "type": "cell-based"}}}
{"molecule": "B1", "values": [{"measurement": "increase in morphine yield relative to the WT CODM strain", "setting": "codeine; Example 4, morphine measured after 15 minutes", "value": 2.3, "unit": "×"}, {"measurement": "speed of biotransformation with codeine as substrate (in words)", "setting": "codeine; time course over two hours", "value": "faster than the WT CODM control"}, {"measurement": "yield of morphine", "setting": "codeine; time course, after one hour", "value": "~94", "unit": "%"}, {"measurement": "increase in oripavine yield relative to the WT CODM strain", "setting": "thebaine; Example 4, oripavine measured after 2 hours", "value": 2.76, "unit": "×"}, {"measurement": "speed of biotransformation with thebaine as substrate (in words)", "setting": "thebaine; time course over twenty-four hours", "value": "performed the fastest biotransformation"}, {"measurement": "yield of thebaine to oripavine", "setting": "thebaine; time course, after ~five hours", "value": "~95", "unit": "%"}]}
